# Paper PMC9482650, “Quantitative fragmentomics allow affinity mapping of interactomes” (Nature Communications, 2022)
# T1: APBA2_1, Q99767
# T1 sequence (Q99767 563-664, limits assumed, looked up): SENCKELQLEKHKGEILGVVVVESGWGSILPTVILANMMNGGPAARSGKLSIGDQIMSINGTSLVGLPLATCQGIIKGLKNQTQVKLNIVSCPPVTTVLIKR
# T2: APBA3_1, O96018
# T2 sequence (O96018 389-490, limits assumed, looked up): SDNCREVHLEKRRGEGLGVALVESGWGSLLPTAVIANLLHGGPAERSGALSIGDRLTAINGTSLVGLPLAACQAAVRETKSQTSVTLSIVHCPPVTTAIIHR
# T3: DFNB31_2, Q9P202
# T3 sequence (Q9P202 274-371, limits assumed, looked up): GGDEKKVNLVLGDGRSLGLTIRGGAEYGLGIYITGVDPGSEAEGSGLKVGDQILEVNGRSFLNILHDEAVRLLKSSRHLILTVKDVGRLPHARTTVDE
# T4: DVL3, Q92997
# T4 sequence (Q92997 244-331, limits assumed, looked up): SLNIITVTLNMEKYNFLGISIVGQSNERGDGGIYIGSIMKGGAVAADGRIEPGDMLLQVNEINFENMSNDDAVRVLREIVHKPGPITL
# T5: HTRA3, P83110
# T5 sequence (P83110 354-453, limits assumed, looked up): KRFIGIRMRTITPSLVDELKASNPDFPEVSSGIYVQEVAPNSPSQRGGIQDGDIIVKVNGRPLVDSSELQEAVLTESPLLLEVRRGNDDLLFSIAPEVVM
# T6: NHERF3_3, Q5T2W1
# T6 sequence (Q5T2W1 238-333, limits assumed, looked up): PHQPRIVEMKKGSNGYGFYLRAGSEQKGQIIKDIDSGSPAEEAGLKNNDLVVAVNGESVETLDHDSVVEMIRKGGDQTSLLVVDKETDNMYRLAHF
# T7: PARD3B_1, Q8TEW8
# T7 sequence (Q8TEW8 196-299, limits assumed, looked up): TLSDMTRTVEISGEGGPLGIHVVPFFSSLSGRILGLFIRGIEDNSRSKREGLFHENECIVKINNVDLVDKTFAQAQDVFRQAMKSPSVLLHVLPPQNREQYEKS
# T8: PDZD7_3, Q9H5P4
# T8 sequence (Q9H5P4 857-944, limits assumed, looked up): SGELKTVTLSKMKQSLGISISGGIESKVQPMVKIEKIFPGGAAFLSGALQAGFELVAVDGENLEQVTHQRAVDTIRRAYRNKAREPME
# T9: SIPA1L2, Q9P2F8
# T9 sequence (Q9P2F8 945-1036, limits assumed, looked up): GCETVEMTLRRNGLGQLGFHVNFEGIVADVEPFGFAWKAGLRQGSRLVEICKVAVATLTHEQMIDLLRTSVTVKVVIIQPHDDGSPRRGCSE
# T10: SNTA1, Q13424
# T10 sequence (Q13424 82-180, limits assumed, looked up): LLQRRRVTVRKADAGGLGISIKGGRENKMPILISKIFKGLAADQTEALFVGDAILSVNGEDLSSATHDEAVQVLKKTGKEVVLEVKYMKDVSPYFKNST
# T11: SNTG1, Q9NSN8
# T11 sequence (Q9NSN8 52-150, limits assumed, looked up): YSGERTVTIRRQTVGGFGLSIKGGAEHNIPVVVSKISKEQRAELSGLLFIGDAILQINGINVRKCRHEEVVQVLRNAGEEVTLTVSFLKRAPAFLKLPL
# T12: TJP3_3, O95049
# T12 sequence (O95049 375-456, limits assumed, looked up): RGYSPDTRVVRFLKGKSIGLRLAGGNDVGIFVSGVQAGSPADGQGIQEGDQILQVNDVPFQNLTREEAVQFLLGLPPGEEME
# Molecular target: T1, APBA2_1, Q99767
# Test: holdup assay
# Set-up: key: below the threshold = too weak to quantify, mostly under pKd 3.1 to 4
# Conditions: plain residues with an end cap or a label only (N-terminal biotin on a linker: ado-ado)
row,pKd,Binder
1,below the threshold,"MLSKQSESAI [FLVCR1, Q9Y5Y0]"
2,below the threshold,"RKPKPSSSCC [RAB9A, P51151]"

# Molecular target: T2, APBA3_1, O96018
# Test: holdup assay
# Set-up: key: below the threshold = too weak to quantify, mostly under pKd 3.1 to 4
# Conditions: plain residues with an end cap or a label only (N-terminal biotin on a linker: ado-ado)
row,pKd,Binder
1,below the threshold,"MLSKQSESAI [FLVCR1, Q9Y5Y0]"
2,below the threshold,"RKPKPSSSCC [RAB9A, P51151]"

# Molecular target: ARHGEF12, Q9NZN5-2
# Test: holdup assay
# Set-up: key: below the threshold = too weak to quantify, mostly under pKd 3.1 to 4
# Conditions: plain residues with an end cap or a label only (N-terminal biotin on a linker: ado-ado)
# Chain of ARHGEF12, Q9NZN5-2 (Q9NZN5 other isoform, or with tags, fused parts or gaps): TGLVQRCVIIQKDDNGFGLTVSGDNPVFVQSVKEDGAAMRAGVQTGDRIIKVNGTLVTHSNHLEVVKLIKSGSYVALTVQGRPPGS
row,pKd,Binder
1,3.68,"MLSKQSESAI [FLVCR1, Q9Y5Y0]"
2,4.27,"RKPKPSSSCC [RAB9A, P51151]"

# Molecular target: CASK, O14936
# Test: holdup assay
# Set-up: key: below the threshold = too weak to quantify, mostly under pKd 3.1 to 4
# Conditions: plain residues with an end cap or a label only (N-terminal biotin on a linker: ado-ado)
# Chain of CASK, O14936 (O14936 487-570): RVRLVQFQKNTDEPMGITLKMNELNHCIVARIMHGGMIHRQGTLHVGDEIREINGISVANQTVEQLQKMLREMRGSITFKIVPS
row,pKd,Binder
1,below the threshold,"MLSKQSESAI [FLVCR1, Q9Y5Y0]"
2,below the threshold,"RKPKPSSSCC [RAB9A, P51151]"

# Molecular target: T3, DFNB31_2, Q9P202
# Test: holdup assay
# Set-up: key: below the threshold = too weak to quantify, mostly under pKd 3.1 to 4
# Conditions: plain residues with an end cap or a label only (N-terminal biotin on a linker: ado-ado)
row,pKd,Binder
1,below the threshold,"MLSKQSESAI [FLVCR1, Q9Y5Y0]"
2,below the threshold,"RKPKPSSSCC [RAB9A, P51151]"

# Molecular target: DLG2_2, Q15700
# Test: holdup assay
# Set-up: key: below the threshold = too weak to quantify, mostly under pKd 3.1 to 4
# Conditions: plain residues with an end cap or a label only (N-terminal biotin on a linker: ado-ado)
# Chain of DLG2_2, Q15700 (Q15700 189-283): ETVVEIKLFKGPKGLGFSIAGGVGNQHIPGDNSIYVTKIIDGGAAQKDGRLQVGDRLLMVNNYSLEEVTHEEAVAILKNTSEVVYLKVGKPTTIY
row,pKd,Binder
1,below the threshold,"MLSKQSESAI [FLVCR1, Q9Y5Y0]"
2,below the threshold,"RKPKPSSSCC [RAB9A, P51151]"

# Molecular target: T4, DVL3, Q92997
# Test: holdup assay
# Set-up: key: below the threshold = too weak to quantify, mostly under pKd 3.1 to 4
# Conditions: plain residues with an end cap or a label only (N-terminal biotin on a linker: ado-ado)
row,pKd,Binder
1,below the threshold,"MLSKQSESAI [FLVCR1, Q9Y5Y0]"
2,below the threshold,"RKPKPSSSCC [RAB9A, P51151]"

# Molecular target: GORASP1, Q9BQQ3
# Test: holdup assay
# Set-up: key: below the threshold = too weak to quantify, mostly under pKd 3.1 to 4
# Conditions: plain residues with an end cap or a label only (N-terminal biotin on a linker: ado-ado)
# Chain of GORASP1, Q9BQQ3 (Q9BQQ3 1-208): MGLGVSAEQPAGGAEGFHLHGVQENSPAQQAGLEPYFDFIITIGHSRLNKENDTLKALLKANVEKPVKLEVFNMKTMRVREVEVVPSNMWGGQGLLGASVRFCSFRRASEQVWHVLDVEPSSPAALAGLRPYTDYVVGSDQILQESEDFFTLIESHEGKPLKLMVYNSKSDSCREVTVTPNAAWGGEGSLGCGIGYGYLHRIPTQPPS
row,pKd,Binder
1,below the threshold,"MLSKQSESAI [FLVCR1, Q9Y5Y0]"
2,below the threshold,"RKPKPSSSCC [RAB9A, P51151]"

# Molecular target: GRIP2_3, Q9C0E4
# Test: holdup assay
# Set-up: key: below the threshold = too weak to quantify, mostly under pKd 3.1 to 4
# Conditions: plain residues with an end cap or a label only (N-terminal biotin on a linker: ado-ado)
# Chain of GRIP2_3, Q9C0E4 (Q9C0E4 238-339): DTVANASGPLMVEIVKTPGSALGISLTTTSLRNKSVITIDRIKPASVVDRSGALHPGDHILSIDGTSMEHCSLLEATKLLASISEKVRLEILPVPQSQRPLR
row,pKd,Binder
1,below the threshold,"MLSKQSESAI [FLVCR1, Q9Y5Y0]"
2,below the threshold,"RKPKPSSSCC [RAB9A, P51151]"

# Molecular target: GRIP2_7, Q9C0E4
# Test: holdup assay
# Set-up: key: below the threshold = too weak to quantify, mostly under pKd 3.1 to 4
# Conditions: plain residues with an end cap or a label only (N-terminal biotin on a linker: ado-ado)
# Chain of GRIP2_7, Q9C0E4 (Q9C0E4 934-1023): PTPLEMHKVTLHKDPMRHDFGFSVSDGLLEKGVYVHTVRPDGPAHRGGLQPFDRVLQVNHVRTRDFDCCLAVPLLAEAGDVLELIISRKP
row,pKd,Binder
1,below the threshold,"MLSKQSESAI [FLVCR1, Q9Y5Y0]"
2,below the threshold,"RKPKPSSSCC [RAB9A, P51151]"

# Molecular target: T5, HTRA3, P83110
# Test: holdup assay
# Set-up: key: below the threshold = too weak to quantify, mostly under pKd 3.1 to 4
# Conditions: plain residues with an end cap or a label only (N-terminal biotin on a linker: ado-ado)
row,pKd,Binder
1,below the threshold,"MLSKQSESAI [FLVCR1, Q9Y5Y0]"
2,4.6,"RKPKPSSSCC [RAB9A, P51151]"

# Molecular target: LIMK2, P53671
# Test: holdup assay
# Set-up: key: below the threshold = too weak to quantify, mostly under pKd 3.1 to 4
# Conditions: plain residues with an end cap or a label only (N-terminal biotin on a linker: ado-ado)
# Chain of LIMK2, P53671 (P53671 143-248): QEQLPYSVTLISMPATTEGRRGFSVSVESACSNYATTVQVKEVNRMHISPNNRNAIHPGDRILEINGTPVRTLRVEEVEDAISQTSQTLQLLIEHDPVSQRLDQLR
row,pKd,Binder
1,below the threshold,"MLSKQSESAI [FLVCR1, Q9Y5Y0]"
2,below the threshold,"RKPKPSSSCC [RAB9A, P51151]"

# Molecular target: MAGI1_2, Q96QZ7
# Test: holdup assay
# Set-up: key: below the threshold = too weak to quantify, mostly under pKd 3.1 to 4
# Conditions: plain residues with an end cap or a label only (N-terminal biotin on a linker: ado-ado)
# Chain of MAGI1_2, Q96QZ7 (Q96QZ7 456-580): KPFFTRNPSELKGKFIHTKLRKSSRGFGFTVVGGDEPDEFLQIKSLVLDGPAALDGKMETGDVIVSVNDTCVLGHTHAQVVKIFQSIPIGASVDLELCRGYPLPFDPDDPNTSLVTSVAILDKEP
row,pKd,Binder
1,below the threshold,"MLSKQSESAI [FLVCR1, Q9Y5Y0]"
2,3.64,"RKPKPSSSCC [RAB9A, P51151]"

# Molecular target: T6, NHERF3_3, Q5T2W1
# Test: holdup assay
# Set-up: key: below the threshold = too weak to quantify, mostly under pKd 3.1 to 4
# Conditions: plain residues with an end cap or a label only (N-terminal biotin on a linker: ado-ado)
row,pKd,Binder
1,below the threshold,"MLSKQSESAI [FLVCR1, Q9Y5Y0]"
2,below the threshold,"RKPKPSSSCC [RAB9A, P51151]"

# Molecular target: NHERF4_2, Q86UT5
# Test: holdup assay
# Set-up: key: below the threshold = too weak to quantify, mostly under pKd 3.1 to 4
# Conditions: plain residues with an end cap or a label only (N-terminal biotin on a linker: ado-ado)
# Chain of NHERF4_2, Q86UT5 (Q86UT5 220-308): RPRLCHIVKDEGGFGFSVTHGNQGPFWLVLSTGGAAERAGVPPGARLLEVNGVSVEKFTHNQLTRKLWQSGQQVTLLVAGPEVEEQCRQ
row,pKd,Binder
1,below the threshold,"MLSKQSESAI [FLVCR1, Q9Y5Y0]"
2,below the threshold,"RKPKPSSSCC [RAB9A, P51151]"

# Molecular target: T7, PARD3B_1, Q8TEW8
# Test: holdup assay
# Set-up: key: below the threshold = too weak to quantify, mostly under pKd 3.1 to 4
# Conditions: plain residues with an end cap or a label only (N-terminal biotin on a linker: ado-ado)
row,pKd,Binder
1,3.47,"MLSKQSESAI [FLVCR1, Q9Y5Y0]"
2,below the threshold,"RKPKPSSSCC [RAB9A, P51151]"

# Molecular target: PARD3_3, Q8TEW0
# Test: holdup assay
# Set-up: key: below the threshold = too weak to quantify, mostly under pKd 3.1 to 4
# Conditions: plain residues with an end cap or a label only (N-terminal biotin on a linker: ado-ado)
# Chain of PARD3_3, Q8TEW0 (Q8TEW0 582-685): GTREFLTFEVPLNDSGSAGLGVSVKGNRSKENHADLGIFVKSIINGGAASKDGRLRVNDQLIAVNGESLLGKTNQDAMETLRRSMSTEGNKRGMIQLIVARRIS
row,pKd,Binder
1,below the threshold,"MLSKQSESAI [FLVCR1, Q9Y5Y0]"
2,below the threshold,"RKPKPSSSCC [RAB9A, P51151]"

# Molecular target: T8, PDZD7_3, Q9H5P4
# Test: holdup assay
# Set-up: key: below the threshold = too weak to quantify, mostly under pKd 3.1 to 4
# Conditions: plain residues with an end cap or a label only (N-terminal biotin on a linker: ado-ado)
row,pKd,Binder
1,3.78,"MLSKQSESAI [FLVCR1, Q9Y5Y0]"
2,3.76,"RKPKPSSSCC [RAB9A, P51151]"

# Molecular target: SCRIB_1, Q14160
# Test: holdup assay
# Set-up: key: below the threshold = too weak to quantify, mostly under pKd 3.1 to 4
# Conditions: plain residues with an end cap or a label only (N-terminal biotin on a linker: ado-ado)
# Chain of SCRIB_1, Q14160 (Q14160 718-814): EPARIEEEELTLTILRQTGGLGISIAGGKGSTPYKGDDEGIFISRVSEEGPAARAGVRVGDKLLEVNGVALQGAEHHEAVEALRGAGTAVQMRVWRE
row,pKd,Binder
1,3.91,"MLSKQSESAI [FLVCR1, Q9Y5Y0]"
2,below the threshold,"RKPKPSSSCC [RAB9A, P51151]"

# Molecular target: SCRIB_3, Q14160
# Test: holdup assay
# Set-up: key: below the threshold = too weak to quantify, mostly under pKd 3.1 to 4
# Conditions: plain residues with an end cap or a label only (N-terminal biotin on a linker: ado-ado)
# Chain of SCRIB_3, Q14160 (Q14160 999-1103): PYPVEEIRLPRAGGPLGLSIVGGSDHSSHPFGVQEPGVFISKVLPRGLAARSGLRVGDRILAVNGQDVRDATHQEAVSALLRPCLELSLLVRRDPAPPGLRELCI
row,pKd,Binder
1,4.61,"MLSKQSESAI [FLVCR1, Q9Y5Y0]"
2,below the threshold,"RKPKPSSSCC [RAB9A, P51151]"

# Molecular target: T9, SIPA1L2, Q9P2F8
# Test: holdup assay
# Set-up: key: below the threshold = too weak to quantify, mostly under pKd 3.1 to 4
# Conditions: plain residues with an end cap or a label only (N-terminal biotin on a linker: ado-ado)
row,pKd,Binder
1,below the threshold,"MLSKQSESAI [FLVCR1, Q9Y5Y0]"
2,below the threshold,"RKPKPSSSCC [RAB9A, P51151]"

# Molecular target: T10, SNTA1, Q13424
# Test: holdup assay
# Set-up: key: below the threshold = too weak to quantify, mostly under pKd 3.1 to 4
# Conditions: plain residues with an end cap or a label only (N-terminal biotin on a linker: ado-ado)
row,pKd,Binder
1,3.73,"MLSKQSESAI [FLVCR1, Q9Y5Y0]"
2,below the threshold,"RKPKPSSSCC [RAB9A, P51151]"

# Molecular target: T11, SNTG1, Q9NSN8
# Test: holdup assay
# Set-up: key: below the threshold = too weak to quantify, mostly under pKd 3.1 to 4
# Conditions: plain residues with an end cap or a label only (N-terminal biotin on a linker: ado-ado)
row,pKd,Binder
1,3.93,"MLSKQSESAI [FLVCR1, Q9Y5Y0]"
2,below the threshold,"RKPKPSSSCC [RAB9A, P51151]"

# Molecular target: TJP1_2, Q07157
# Test: holdup assay
# Set-up: key: below the threshold = too weak to quantify, mostly under pKd 3.1 to 4
# Conditions: plain residues with an end cap or a label only (N-terminal biotin on a linker: ado-ado)
# Chain of TJP1_2, Q07157 (Q07157 181-274): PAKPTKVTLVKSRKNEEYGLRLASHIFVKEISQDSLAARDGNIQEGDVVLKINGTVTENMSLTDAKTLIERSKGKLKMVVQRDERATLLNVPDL
row,pKd,Binder
1,below the threshold,"MLSKQSESAI [FLVCR1, Q9Y5Y0]"
2,below the threshold,"RKPKPSSSCC [RAB9A, P51151]"

# Molecular target: TJP2_1, Q9UDY2
# Test: holdup assay
# Set-up: key: below the threshold = too weak to quantify, mostly under pKd 3.1 to 4
# Conditions: plain residues with an end cap or a label only (N-terminal biotin on a linker: ado-ado)
# Chain of TJP2_1, Q9UDY2 (Q9UDY2 24-128): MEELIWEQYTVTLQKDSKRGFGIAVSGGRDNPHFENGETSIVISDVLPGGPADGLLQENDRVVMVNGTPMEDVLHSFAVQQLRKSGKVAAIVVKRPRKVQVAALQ
row,pKd,Binder
1,below the threshold,"MLSKQSESAI [FLVCR1, Q9Y5Y0]"
2,below the threshold,"RKPKPSSSCC [RAB9A, P51151]"

# Molecular target: T12, TJP3_3, O95049
# Test: holdup assay
# Set-up: key: below the threshold = too weak to quantify, mostly under pKd 3.1 to 4
# Conditions: plain residues with an end cap or a label only (N-terminal biotin on a linker: ado-ado)
row,pKd,Binder
1,below the threshold,"MLSKQSESAI [FLVCR1, Q9Y5Y0]"
2,below the threshold,"RKPKPSSSCC [RAB9A, P51151]"
